Experiment: soluble on expression in E. coli; label from the status in PepcDB or PDB records

Sequence: MINRVPTNIITGFLGVGKTTAILHLLATKPAHEKWAVLVNEFGEIGIDGAIMSEQGAMIKEVPGGCLCCTAGVPMSVGINALLRQKPDRLIIEPTGLGHPKQVVATLISEQYQPYVDLKATIALMDPRHLSMDKYRSNQNFNDQLASADIVLGNKVDQCSSSDIDAFNDWVTDQTPAKTFSQLIKQGQFPIELLDMPRLVGHASTHIDSHHHHHAADEPQFQLAPQQPFLRKENRGQGYFSCGWLFGAEYQFNFDLLFQLLNDLTAERVKGVLNTDRGCYAFNVANGVVSVTEMSLDGFESRLEVIDSQLMPWSELESILLKIAGIPQALEHHHHHH
- soluble on expression in E. coli: not soluble

Sequence: MSLGATNRLACYSDPADHYSHRVRLVLAEKGVSVQLIDVDPAHLPRKLAEVNPYGSVPTLVDRDLALYESTVVMEYLEERYPHPPLMPVYPVARGNSRLLMHRIQRDWCALADTVLDPRSSEAARTEARKALRESLTGVSPLFSEFACFMSDEQSLVDCCLLPILWRLPVLGIELPRQAKPLLDYMERQFAREPFQASLSSVEREMRKLEGHHHHHH
- soluble on expression in E. coli: soluble

Sequence: MTSSSTPRHRGIFPVVPTTFADTGDLDLASQKRAVDFMIDAGSDGLCILANFSEQFAITDDERDVLTRTILEHVAGRVPVIVTTSHYSTQVCAARSLRAQQLGAAMVMAMPPYHGATFRVPEAQIFEFYARVSDAIAIPIMVQDAPASGTALSAPFLARMAREIEQVAYFKIETPGAANKLRELIRLGGDAIEGPWDGEEAITLLADLHAGATGAMTGGGFPDGIRPILEAWREGRHDDAYARYQAWLPLINHENRQSGILTAKALMREGGVIASERPRHPMPELHPDTRAELLAIARRLDPLVLRWAH
- soluble on expression in E. coli: soluble

Sequence: MGSDKIHHHHHHMPTLLMITPENSEINKFKAHQLNNFTQLTMPYLAGFVPEEYSIRLLDEYTEPILFEKVDLVAITVNTPNAPHVYSVSKRFRELGAWVALGGPHVTLNPEEAACHGDTIFVGEAEETWPEFLKDFLSGNMQKVYTSLQVPSLDGLPIPRRDLIVGHRFTSGAVFASRGCPHHCSYCSLKKIYHNKLRTRPVDEVIKDIGSMPNKYFVFWDDNFFADPVYTKALLKELARLNKRWAAQVTAYSCEDEELLSLAKSAGCLYLFLGLESFSEQGLRDANKNFNKIEEYGKVVNKLHRHGISIQAGIVFGFDSDTLDVFETTLKACNKIGVDGVTASILTPFPGTSIYEQYKKEGRLLDVDWDHYNGKTRVAYVPKRMNCKELLNGYNEFRGKFHSWRSIVKRISKSRVNIFYSLAMNYGYKRAYRNFTRLGIGERSDESLGQRMEQHLRNWPR
- soluble on expression in E. coli: not soluble

Sequence: MAHHHHHHMALTTDYSKLGELIHQSPESPSLYNQAKYHTQKQNDSFYEIKRFMCLGSTIPDDAQYSVDLLIDRGDKKCRDVLAESFRVEGYKYATTNNDDNVRFAKLFFDHYANMFYCMHLHGDDRKCNSLFRHFYEAVGKQTR
- soluble on expression in E. coli: not soluble

Sequence: SLGQRPPIRRIVIDAAIPTKGITIVDVAKELYKVEGVKAVRITVDDVDVDVLGLAIVVEGVDIDYNELEDVLEKVGGVVHSVDEVVVGEYIPEAGRTA
- soluble on expression in E. coli: soluble

Sequence: MSLEKEYEYLVPPDDYLAAGVHIGTQIKTGDMKKFIFKVRQDGLYVLDIRKLDERIRVAAKFLSRYEPSKILLVAARQYAHKPVQMFSKVVGSDYIVGRFIPGTLTNPMLSEYREPEVVFVNDPAIDKQAVSEATAVGIPVVALCDSNNSSADVDLVIPTNNKGRRALAIVYWLLAREIAKIRGQDFTYSIEDFEAELEGGSHHHHHH
- soluble on expression in E. coli: soluble

Sequence: MTPFSDAAKNNTVKTDGDSVSGRDLPITKISEDRFERSAYSAQLANIICDVAPWGASTVFSLTGQWGSGKTSLVNLIRSEESLSNEKWTIVDFNPWVASDPQSLIEEFYRVIVGTVPDDKTGQKIKTVLQKTFSTIGSIAGGVGGFGVLEALALSKGVDAANAVYKTWKQEQDSWPTLYTRAANHFKDLNKRILIVVDDIDRLHTDELALLMKVIRLLGRFPQVNYLLVYEEESLLTTLARSTAVGGSEDDALRFMEKIVQYPFDVPPLTSFQIEKELSALFDKLFQGVSLSGDPEDFALVKSRMFDVWEKTLVTPRLLHRFAALLTNWTRIYGSGEVNGVDLTILATIRIVFPSVYKRLSRAKEVLLQGLEHHHHHH
- soluble on expression in E. coli: not soluble

Sequence: MSLKRITMQDIADRLNISKNSVSQALRGKEGVSKETRELVKRVAKEMGYEYPASRAKSRGKPPRQIALIASDRTFSLKFFGEIYLSIEQEALSHGMKLHIQSVNKEQKERLLLPSFIEEKQVDGVIVLSHISTEYIQQIVATGIPTVLVDHHHPNIPADAVLTNNRFGAYVAVQHLLELNHTDIAFVGDVNYSPSYQERYEGYLLALKDYGVKPNEEWMFCQAQEDETVIAGYIRELKRQPTAWFCVNDGLGFFVSTGLQQYGLKVPDDVSVCSFDNGQLSQIATPKITTVDIDLKRYGKRAVELLRWRWDNPNEPFQEVLLSTKLIKRESTAAKPTREGHHHHHH
- soluble on expression in E. coli: soluble

Sequence: NGKLFLVGTPIGNLKDITLRALETLQNCDVIAAEDTRQSLKLLNHFDIKKPLISYHKFNENNRSSELMDMVREGKKVALVTDAGMPGISDPGSVIVEKFIENNLEFEVIPG
- soluble on expression in E. coli: soluble

Sequence: MKLNRAIGVIDSGVGGLTVAKELIRQLPKERIIYLGDTARCPYGPRSREEVRQFTWEMTEHLLDLNIKMLVIACNTATAVVLEEMQKQLPIPVVGVIHPGSRTALKVTNTYHVGIIGTIGTVKSGAYEEALKSINNRVMVESLACPPFVELVESGNFESEMAYEVVRETLQPLKNTDIDTLILGCTHYPILGPVIKQVMGDKVQLISSGDETAREVSTILYHSKMLNEGEEQSDHLFLTTGKIGLFKEIASKWFGQPIENVKHIHLEKE
- soluble on expression in E. coli: not soluble

Sequence: MGSFPNFGAFILRAQEKDGRTCINGLPVASPAKQMLGRFPYLQSLQHDNLSVYLHFSETVIARDLVIVVMEHYTMNLEDILKTGNLKDESLNNNFYSEISSALDYLHTRNIVHGFLHLNSIYITDRKNQKLSVKLSGYGLPFLTNYGKDTASSIKFGAFLAPERILNDEDSLFAATYQSDVWELGFIILQIYLGISLEAEVTETEYLEILNKYYTDDQEKLSTVMEDLIQLLADKKRLPYHKKCEWLEAIIRKCLQMCCSKRCSITEVAAEIEININGVKNNNNKYEYKVKTVEEMRAAVRKEVADNNDGFEKLSVENSFYLWKTCGSTPEIILLKKGIIQNHAPISSYPTVRFDDFLRLDSGVDSQSTFEYGVFDLPSKKTLTRKETGQRVSARMFHKIGILEDKDLLNGNILYETASNMLTVDHLLNASAVFGISSIISRLTNIGVIPTQRADVWCTLLDINETKWRDYLNLDVLASHSSDRQLEVDIPRCHQYDSYMTTPAIQESLRKVLKGWQIVTESQHFVYWQGCDSLATPFLLANMSKPHVAFACFKEFTYRYCHKFYLKDNSEVIKEYLGIFYHLVAYTDPVLYKHLKINGFDAELFAIPWFLTCFAHELPLSKLVLLWDETMMHGNAFPLMIALAMLNRLRDKLLAVNFNEMIIIIHDQPDLSIDEIIKNSRGYEKLIPPSCTFRAHASPWKGTSLSLQQLSSIHCPRMSSEELIWRIERKMVYVLDTRQESEFQSERFSDSFNHPNNNHEADIDWLRFLPGIVCSELPKCFVYGKNDKEAAERLTEAYVMKGVPYICLLHDHFEAVRNRDSVVVKP
- soluble on expression in E. coli: not soluble

Sequence: MKKDNTVFNDLQASLKQAVAIRQGKMPPSRVFKVETVDVKATREKTHMSQTEFAKAIHVSVRTLQNWEQGHRNPTGPAVALLKIVASAPDIAVRALRTA
- soluble on expression in E. coli: not soluble

Sequence: MGSDKIHHHHHHMRRSSVFAGSDGQLDLFVGAGSNIAARDAQDLMAWPFFSLAKTKRVRPIDFRMGEVSILVEATAEHGMATIWDADVLIWVASQIVEARDCGRSTSRLIAATPHEILSFTRRGTGKASYERLKAGLDRLQSTTVATSIRQPHQRRRHRFSWINEWRECLDSSGRALGIEMIVPDWFYEGVLDAALVLTIDRAYFGLTGGLERWLYRIVRKHGGKQKGGWSFDVAHLHLKSGALSPLKRFAFELRDIVRRQPLPGYRLELEHALGRERLSFVCIPEDSFDAAMRRLGYSGVDNP
- soluble on expression in E. coli: not soluble

Sequence: MRKRARIIYNPTSGKELFKRELPDALIKLEKAGYETSAYATEKIGDATLEAERAMHENYDVLIAAGGDGTLNEVVNGIAEKPNRPKLGVIPMGTVNDFGRALHIPNDIMGALDVIIEGHSTKVDIGKMNNRYFINLAAGGQLTQVSYETPSKLKSIVGPFAYYIKGFEMLPQMKAVDLRIEYDGNVFQGEALLFFLGLTNSMAGFEKLVPDAKLDDGYFTLIIVEKSNLAELGHIMTLASRGEHTKHPKVIYEKAKAINISSFTDLQLNVDGEYGGKLPANFLNLERHIDVFAPNDIVNEELINNDHVDDNLIEEMAGDPLEHHHHHH
- soluble on expression in E. coli: not soluble

Sequence: MSLIGETINKLKVIKESSKRDKSRCKMYECLCECGEVIIVRSSTLRQGKIKSCGCESNKIHSELMRERNTTHGLSSNPMYQRWLGMKQRCYDVNAINYKNYGGRGIEICEEWKNDFKKFYDYMGDPPNENYQIDRINNDGNYEPGNVKWSTRSENSTNIRKKEGHHHHHH
- soluble on expression in E. coli: soluble

Sequence: MGQRYKRMSSTDTNEYMSDNLAKAISNPLFPALDSMLRAGRHISTEDLDNHALLSDFELELSSFYQRYNTELVKAPEGFFYLRPRSTSLIGRSVLSELDMLVGKVLCFLYLSPERLAHEGIFTNQELYDELLALADEKKLMKLVTNRATGSDLDKEKLFEKVRTSLRRLRRLGMIINIGETGKFSISEAVFRFGADVRVGDDIREAQLRLIRDGEAVVHTKEPSQGSLLSEEDQEEQAQEEMTEEGEALEHHHHHH
- soluble on expression in E. coli: soluble

Sequence: MSPLKPLYKLYEWYISRNLRRDRMPRHVAIIMDGNRRYSKLQGSMNPIEGHKKGIETLEKVLDWCVDLGIEIVTAYAFSTENFKRPEKEVKGLMKLFRENFEAIASNEKIHKNRVRVRAVGKLELLPEDVRRAIEIAEKSTEQYSDRLVNIAIGYDGRQEIVDATRKIAEDVKAGLIDPEDIDEDMINRNLYTAGLEDPHLIIRTSGEERLSGFLLWQSSYSELYFCDSLWPELRKVDFLRAIRSYQQRERRFGV
- soluble on expression in E. coli: soluble

Sequence: MILDADYITEDGKPVIRVFKKEKGEFKIDYDRDFEPYIYALLKDDSAIEDIKKITAERHGTTVRVTRAERVKKKFLGRPVEVWKLYFTHPQDVPAIRDKIREHPAVVDIYEYDIPFAKRYLIDRGLIPMEGDEELRMLAFDIETLYHEGEEFGEGPILMISYADEEGARVITWKNIDLPYVESVSTEKEMIKRFLKVIQEKDPDVLITYNGDNFDFAYLKKRSEMLGVKFILGRDGSEPKIQRMGDRFAVEVKGRIHFDLYPVIRRTINLPTYTLETVYEPVFGQPKEKVYAEEIARAWESGEGLERVARYSMEDAKATYELGKEFFPMEAQLSRLVGQSLWDVSRSSTGNLVEWFLLRKAYERNDVAPNKPDERELARRTESYAGGYVKEPEKGLWENIVYLDYKSLYPSIIITHNVSPDTLNREGCREYDVAPQVGHRFCKDFPGFIPSLLGDLLEERQKVKKKMKATVDPIERKLLDYRQRAIKILANSYYGYYAYANARWYCRECAESVTAWGRQYIETTMREIEEKFGFKVLYADTDGFFATIPGADAETVKNKAKEFLNYINPRLPGLLELEYEGFYRRGFFVTKKKYAVIDEEDKITTRGLEIVRRDWSEIAKETQARVLEAILKHGDVEEAVRIVKEVTEKLSRHEVPPEKLVIYEQITRDLRSYRATGPHVAVAKRLAARGIKIRPGTVISYIVLKGPGRVGDRAIPFDEFDPAKHRYDAEYYIENQVLPAVERILRAFGYRKEDLRYQKTKQAGLGAWLKPKT
- soluble on expression in E. coli: soluble

Sequence: MARGREAVTLLLVGWGYAPGMQTLEALDAVRRADVVYVESYTMPGSSWLYKSVVEAAGEARVVEASRRDLEERSREIVSRALDAVVAVVTAGDPMVATTHSSLAAEALEAGVAVRYIPGVSGVQAARGATMLSFYRFGGTVTLPGPWRGVTPISVARRIYLNLCAGLHTTALLDVDERGVQLSPGQGVSLLLEADREYAREAGAPALLARLPSVLVEAGAGGGHRVLYWSSLERLSTADVEGGVYSIVIPARLSGVEEWLLAAASGQRRPLEYDRSVYETVEENCKKGVYMEPV
- soluble on expression in E. coli: soluble
